Assay results taken from PMC10248797, “Ndel1 disfavors dynein–dynactin–adaptor complex formation in two distinct ways” (The Journal of Biological Chemistry, 2023).
Positions count from the first letter of the chain named. In names and notes the source's numbering stands.

T1: Lis1 (UniProt P43034 1-410)
T1 construct: Lis1; also called ZZ-TEV-Lis1; source: Sf9 cells, purified (IgG Sepharose, TEV cleavage, size-exclusion chromatography); not shown: ZZ, N-terminal, cleaved
T1 sequence (looked up): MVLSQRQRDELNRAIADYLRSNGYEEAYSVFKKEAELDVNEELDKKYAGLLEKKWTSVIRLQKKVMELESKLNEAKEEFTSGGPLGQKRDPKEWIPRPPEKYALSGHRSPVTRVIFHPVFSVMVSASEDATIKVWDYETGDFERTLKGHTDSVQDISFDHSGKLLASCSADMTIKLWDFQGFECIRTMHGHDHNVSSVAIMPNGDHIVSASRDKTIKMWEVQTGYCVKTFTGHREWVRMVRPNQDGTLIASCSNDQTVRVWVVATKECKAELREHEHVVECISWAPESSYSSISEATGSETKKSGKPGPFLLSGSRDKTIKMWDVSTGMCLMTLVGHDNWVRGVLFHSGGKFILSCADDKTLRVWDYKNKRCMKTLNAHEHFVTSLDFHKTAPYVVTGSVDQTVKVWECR

B1: Halo-tagged Ndel1 with the C-terminal coiled coil (256-291) deleted, with C-terminal 6X-His tag (natural protein, UniProt Q9GZM8 1-345, looked up)
chain: MDGEDIPDFSSLKEETAYWKELSLKYKQSFQEARDELVEFQEGSRELEAELEAQLVQAEQRNRDLQADNQRLKYEVEALKEKLEHQYAQSYKQVSVLEDDLSQTRAIKEQLHKYVRELEQANDDLERAKRATIVSLEDFEQRLNQAIERNAFLESELDEKESLLVSVQRLKDEARDLRQELAVRERQQEVTRKSAPSSPTLDCEKMDSAVQASLSLPATPVGKGTENTFPSPKAIPNGFGTSPLTPSARISALNINCGVLNGNGTKFSRSGHTSFFDKGAVNGFDPAPPPPGLGSSRPSSAPGMLPLSV
notes: Ndel1 with residues 256-291 deleted; also called Ndel1^ΔCTCC; FL-Ndel1^ΔCTCC; source: Sf9, purified (IgG Sepharose, TEV cleavage, SEC); not shown: ZZ, N-terminal, cleaved; HaloTag, N-terminal, kept; His6, C-terminal, kept
B2: Halo-tagged Ndel1(1-192), N-terminal coiled coil only, with C-terminal 6X-His tag (domain or fragment, UniProt Q9GZM8 1-192, looked up)
chain: MDGEDIPDFSSLKEETAYWKELSLKYKQSFQEARDELVEFQEGSRELEAELEAQLVQAEQRNRDLQADNQRLKYEVEALKEKLEHQYAQSYKQVSVLEDDLSQTRAIKEQLHKYVRELEQANDDLERAKRATIVSLEDFEQRLNQAIERNAFLESELDEKESLLVSVQRLKDEARDLRQELAVRERQQEVTR
notes: Ndel1 residues 1-192; also called NT-Ndel1; ZZ-TEV-Halo-Ndel1(1-192)-His6; source: Sf9, purified (IgG Sepharose, TEV cleavage, SEC); not shown: ZZ, N-terminal, cleaved; HaloTag, N-terminal, kept; His6, C-terminal, kept
B3: Lis1 (in solution) (natural protein, UniProt P43034 1-410, looked up)
chain: T1 sequence (looked up)
B4: Halo-Lis1 (natural protein, UniProt P43034 1-410, looked up)
chain: T1 sequence (looked up)
notes: Lis1; also called ZZ-TEV-Halo-Lis1; Lis1-conjugated beads; source: Sf9, purified (IgG Sepharose, TEV cleavage, SEC); not shown: ZZ, N-terminal, cleaved; HaloTag, N-terminal, kept
B5: Full-length Ndel1 with N-terminal HaloTag and C-terminal 6X-His tag (natural protein, UniProt Q9GZM8 1-345, looked up)
chain: MDGEDIPDFSSLKEETAYWKELSLKYKQSFQEARDELVEFQEGSRELEAELEAQLVQAEQRNRDLQADNQRLKYEVEALKEKLEHQYAQSYKQVSVLEDDLSQTRAIKEQLHKYVRELEQANDDLERAKRATIVSLEDFEQRLNQAIERNAFLESELDEKESLLVSVQRLKDEARDLRQELAVRERQQEVTRKSAPSSPTLDCEKMDSAVQASLSLPATPVGKGTENTFPSPKAIPNGFGTSPLTPSARISALNIVGDLLRKVGALESKLAACRNFAKDQASRKSYISGNVNCGVLNGNGTKFSRSGHTSFFDKGAVNGFDPAPPPPGLGSSRPSSAPGMLPLSV
notes: Coupled to Magne HaloTag beads through the HaloTag; also called FL-Ndel1; Halo-Ndel1; source: Sf9 cells, purified (IgG Sepharose, TEV cleavage, size-exclusion chromatography); not shown: ZZ, N-terminal, cleaved; HaloTag, N-terminal, kept; His6, C-terminal, kept
B6: Full-length phosphomimetic Ndel1 (S198D; T219D; S231D; S242D) with N-terminal HaloTag and C-terminal 6X-His tag (natural protein, UniProt Q9GZM8 1-345, looked up)
chain: B5 chain with S198D, T219D, S231D, S242D
notes: Ndel1 with the four CDK1 sites changed to aspartic acid; also called FL-Ndel1PM; Halo-Ndel1PM; source: Sf9 cells, purified (IgG Sepharose, TEV cleavage, size-exclusion chromatography); not shown: ZZ, N-terminal, cleaved; HaloTag, N-terminal, kept; His6, C-terminal, kept
B7: Halo-tagged full-length Ndel1 with the four CDK1 sites mutated to aspartic acid (S198D; T219D; S231D; S242D), with C-terminal 6X-His tag (natural protein, UniProt Q9GZM8 1-345, looked up)
chain: B5 chain with S198D, T219D, S231D, S242D
notes: Ndel1 with four phosphomimetic mutations; also called FL-Ndel1^PM; Ndel1^PM; source: Sf9, purified (IgG Sepharose, TEV cleavage, SEC); not shown: ZZ, N-terminal, cleaved; HaloTag, N-terminal, kept; His6, C-terminal, kept
B8: Halo-tagged full-length Ndel1 with C-terminal 6X-His tag (natural protein, UniProt Q9GZM8 1-345, looked up)
chain: B5 chain
notes: Ndel1; 345 residues by the printed range 194-345; also called FL-Ndel1; ZZ-TEV-Halo-Ndel1-His6; source: Sf9, purified (IgG Sepharose, TEV cleavage, SEC); not shown: ZZ, N-terminal, cleaved; HaloTag, N-terminal, kept; His6, C-terminal, kept

What was measured:
[1] = target: T2, SNAP-tagged, recombinant full-length human cytoplasmic dynein-1 with all associated accessory chains (human, UniProt Q14204 1-4646; Q13409-3 1-612; O43237 1-492; P63172 1-113; Q9NP97 1-96; P63167 …); assay: pull-down; quantitative depletion assay: 0-600 nM Ndel1 construct coupled to Magne HaloTag beads via the HaloTag; 5 nM dynein in solution, 45 min; binding buffer 30 mM Hepes pH 7.4, 36 mM KCl, 1 mM ADP, 1 mg/ml casein, 0.1% NP-40; supernatant on SDS-PAGE, densitometry; one-site fit with Bmax set to 1; settings: both partners purified
T2 construct: cytoplasmic dynein 1 heavy chain 1 (DHC1), human; dynein intermediate chain 2, isoform 2C (IC2C), human; dynein light intermediate chain 2 (LIC2), human; dynein light chain Tctex1, human; dynein light chain LC8, human; For motility assays the SNAP tag was labelled with TMR or Alexa647; source: Sf9, purified (IgG Sepharose, TEV cleavage, SEC); not shown: His, N-terminal, cleaved; ZZ, N-terminal, …

[2] = target: B3; assay: pull-down; quantitative depletion assay: Ndel1 construct on Magne HaloTag beads via the N-terminal HaloTag; 5 nM Lis1 in solution; binding buffer with 150 mM KCl; SDS-PAGE densitometry; quadratic binding equation; settings: both partners purified
[3] = target: T2, SNAP-tagged, recombinant full-length …; assay: cell-based or functional assay
[4] = target: T2, SNAP-tagged, recombinant full-length …; assay: pull-down; dynein-Lis1 binding curve (Fig. S4G); one-site fit with Bmax set to 1; who was on the beads is not told for this curve; settings: both partners purified
[5] = target: T1, Lis1; assay: pull-down; depletion of 5 nM Lis1 from solution by Ndel1 coupled to Magne HaloTag beads; binding buffer with 150 mM KCl; SDS-PAGE densitometry of the supernatant; quadratic binding equation; settings: both partners purified

Binder: B1
Kd [1]: 55 nM

Binder: B2
Kd [1]: 79 nM
Kd [2]: ~1.2 nM
landing rate of processive DDB events (smTIRF) with 300 nM NT-Ndel1, against DDB alone [3]: ~2 fold reduction
velocity of DDB (smTIRF) with 300 nM NT-Ndel1, against DDB alone [3]: ~2 fold reduction

Binder: B3
landing rate of DDB (smTIRF) with 50 nM Lis1 and 50 nM FL-Ndel1^PM together, against DDB alone [3]: ~2 fold reduction

Binder: B4
Kd [4]: 101 nM

Binder: B5
Kd [5]: 4.6 nM

Binder: B6
Kd [5]: 3.9 nM

Binder: B7
Kd [2]: ~4 nM
processive landing rate of DDB (smTIRF) with 50 nM FL-Ndel1^PM, against DDB alone [3]: 10 fold reduction

Binder: B8
Kd [1]: ~33 nM
Kd [2]: ~4 nM
landing rate of processive DDB events (smTIRF) with 300 nM FL-Ndel1, against DDB alone [3]: ~5 fold reduction
processive landing rate of DDB (smTIRF) with 50 nM FL-Ndel1, against DDB alone [3]: 1.7 fold reduction
velocity of DDB (smTIRF) with 300 nM FL-Ndel1, against DDB alone [3]: ~2 fold reduction
